Measured values taken from paper PMC3893830, “Manipulating Conserved Heme Cavity Residues of Chlorite Dismutase: Effect on Structure, Redox Chemistry, and Reactivity” (Biochemistry, 2013).

Substrate: [O-][Cl+]O
Test: O2 release, Clark-type oxygen electrode
Assay type: biochemical, Nitrospira defluvii
Conditions: 50 mM phosphate pH 7.0, 30 °C, O2-free buffer, low heme occupancy
Source text: O2 release, Clark-type oxygen electrode on NdCld

B1: NdCld (Nitrospira defluvii; E236A/R199Q) (protein)
chain: ADREKLLTESGVYGTFATFQMDHDWWDLPGESRVISVAEVKGLVEQWSGKILVESYLLRGLSDHADLMFRVHARTLSDTQQFLSAFMGTRLGRHLTSGGLLHGVSKKPTYVAGFPESMKTELQVNGESGSRPYAIVIPIKKDAEWWALDQEARTALMQEHTQAALPYLKTVKQKLYHSTGLDDVDFITYFETERLEDFHNLVRALQQVKAFRHNRRFGHPTLLGTMSPLDEILEKFAQ
notes: N-terminal TEV-cleavable Strep-II tag, N-terminal signal peptide removed; expressed in E. coli Tuner (DE3), StrepTrap purified; homopentamer with heme b
B1 gave a Km of 184 ± 36 µM, a kcat of 0.9 s⁻¹ and a kcat/Km of 4600 M⁻¹ s⁻¹.
